Experimental data from PMC4673700.
pKd: −log10 of the molar value. Where two headings read alike, the source gives them in different places.

Tests used:
[1] = molecular target: GST-fused galectin-1 protein (human) (UniProt P09382)
[2] = molecular target: Aflibercept (human); test: BLI; BLItz; aflibercept, PNGase F-treated aflibercept, VEGFR1-Fc or VEGFR2-Fc immobilised on Protein A-coated biosensors; GST-galectin-1 as analyte at various concentrations; PBS; values of empty sensors subtracted
[3] = molecular target: PNGase F-treated aflibercept (human); test: as above
[4] = molecular target: PNGase F-treated aflibercept (human); test: as above; remark: listed apart in the source

Chain of GST-fused galectin-1 protein (P09382 whole entry, the tested form may be a part): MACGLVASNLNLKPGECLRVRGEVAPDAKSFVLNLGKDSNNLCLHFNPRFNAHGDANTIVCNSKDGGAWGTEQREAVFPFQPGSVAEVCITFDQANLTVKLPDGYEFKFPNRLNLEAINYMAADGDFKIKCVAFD
Chain of GST-fused galectin-1 protein (human) (P09382 whole entry, the tested form may be a part): as above
Chain of Aflibercept (Fc fusion) (chain): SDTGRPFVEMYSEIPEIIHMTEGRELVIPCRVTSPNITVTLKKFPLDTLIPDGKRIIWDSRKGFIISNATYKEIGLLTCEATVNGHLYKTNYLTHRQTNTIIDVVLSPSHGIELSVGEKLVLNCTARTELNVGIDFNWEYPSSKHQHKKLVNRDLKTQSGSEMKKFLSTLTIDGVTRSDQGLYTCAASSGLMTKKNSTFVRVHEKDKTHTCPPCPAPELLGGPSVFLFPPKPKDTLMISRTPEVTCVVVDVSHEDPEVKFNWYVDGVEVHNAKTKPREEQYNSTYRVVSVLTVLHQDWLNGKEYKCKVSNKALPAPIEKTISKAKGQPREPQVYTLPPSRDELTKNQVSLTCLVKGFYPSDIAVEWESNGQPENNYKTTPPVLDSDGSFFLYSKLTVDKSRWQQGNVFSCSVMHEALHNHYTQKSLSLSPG

For Aflibercept (Fc fusion), the HRMEC proliferation (RealTime-Glo, relative to PBS) with 10 μg/ml galectin-1 for 48 h with 7.5 μg/ml aflibercept (2.77 without aflibercept) [1] was 0.96 fold change.
For “GST-fused galectin-1 protein (from UniProt P09382 1-135) (natural protein)”, the pKd [2] was 7.63, the koff [2] was 0.000371 s⁻¹ and the kon [2] was 15700 M⁻¹ s⁻¹. For the same substance, the pKd [3] was 6.06, the koff [3] was 0.00531 s⁻¹ and the kon [3] was 6120 M⁻¹ s⁻¹. It also gave a pKd [4] of 6.06.
